Literature values in PMC2787657.
Read-outs that look alike come from different tables or passages of the source.

Tests used:
[1] = target: CI-MPR cytoplasmic domain (Homo sapiens) (UniProt P11717)
[2] = target: CI-MPR cytoplasmic domain (Homo sapiens) (UniProt P11717); remark: listed apart in the source

UniProt P11717, sequence (P11717 2328-2491): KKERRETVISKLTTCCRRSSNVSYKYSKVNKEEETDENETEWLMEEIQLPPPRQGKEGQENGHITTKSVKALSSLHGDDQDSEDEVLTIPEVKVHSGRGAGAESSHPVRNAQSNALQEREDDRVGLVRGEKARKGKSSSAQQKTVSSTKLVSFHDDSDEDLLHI

Q: What does the source list for TIP47 (from UniProt O60664)?
A: Kd [1]: 900 nM; Kd [2]: 300 nM
